Patent publication US20210340562

What was measured:
Experiment in all cases: EMSA
R2Bm protein (WT) = R2Bm protein (WT) (UniProt V9H052); conditions: 3' or 5' PBM RNA; reference
[1] = system: R2Bm SR/AGR/A mutant SR/AGR/A (double point, presumptive alpha-finger); conditions: 3' PBM RNA (upstream binding); increased up to 32%
[2] = system: R2Bm SR/AIR/A mutant SR/AIR/A (double point, presumptive alpha-finger); conditions: 3' PBM RNA; reduced 13%; with 5' PBM RNA reduced 19-28%
[3] = system: R2Bm GR/AD/A mutant GR/AD/A (double point, presumptive alpha-finger); conditions: 3' PBM RNA; reduced 24%; with 5' PBM RNA reduced about 13%

Chain of UniProt V9H052 (V9H052 entry or part of it): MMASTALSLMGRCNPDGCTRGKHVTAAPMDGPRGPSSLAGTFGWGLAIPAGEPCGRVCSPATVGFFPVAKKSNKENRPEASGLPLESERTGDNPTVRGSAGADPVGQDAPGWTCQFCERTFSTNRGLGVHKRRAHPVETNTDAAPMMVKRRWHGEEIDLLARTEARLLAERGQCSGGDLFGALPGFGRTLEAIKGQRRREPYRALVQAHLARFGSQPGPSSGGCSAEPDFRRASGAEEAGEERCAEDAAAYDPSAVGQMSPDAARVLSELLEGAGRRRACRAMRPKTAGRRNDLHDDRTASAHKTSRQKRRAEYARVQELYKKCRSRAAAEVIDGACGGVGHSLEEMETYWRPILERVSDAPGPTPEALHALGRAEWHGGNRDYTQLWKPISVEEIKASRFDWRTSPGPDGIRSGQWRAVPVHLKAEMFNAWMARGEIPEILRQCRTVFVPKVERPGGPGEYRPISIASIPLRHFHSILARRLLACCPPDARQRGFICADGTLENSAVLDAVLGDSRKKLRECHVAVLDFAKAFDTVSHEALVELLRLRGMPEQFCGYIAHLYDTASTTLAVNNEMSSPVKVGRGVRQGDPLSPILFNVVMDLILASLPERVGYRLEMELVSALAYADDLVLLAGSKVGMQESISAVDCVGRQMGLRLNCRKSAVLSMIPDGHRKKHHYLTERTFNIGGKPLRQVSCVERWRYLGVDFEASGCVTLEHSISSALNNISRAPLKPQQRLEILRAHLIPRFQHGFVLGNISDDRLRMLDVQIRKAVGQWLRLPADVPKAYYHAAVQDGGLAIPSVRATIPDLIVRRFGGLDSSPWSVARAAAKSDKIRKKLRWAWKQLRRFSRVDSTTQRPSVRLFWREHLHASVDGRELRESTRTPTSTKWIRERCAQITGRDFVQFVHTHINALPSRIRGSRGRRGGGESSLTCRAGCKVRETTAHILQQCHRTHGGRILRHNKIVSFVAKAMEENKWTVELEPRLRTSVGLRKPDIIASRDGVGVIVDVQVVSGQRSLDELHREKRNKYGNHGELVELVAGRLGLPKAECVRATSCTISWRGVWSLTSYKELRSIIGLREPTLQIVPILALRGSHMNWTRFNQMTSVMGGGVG

linear 28S rDNA target
binding signal (fraction of WT) (R2Bm protein (WT)): 1 | binding signal (fraction of WT) [1]: 1.32 | binding signal (fraction of WT) [2]: 0.87 | binding signal (fraction of WT) [3]: 0.76
